Legend:
[1] = molecular target: T1, Bak (Homo sapiens, UniProt Q16611); assay: Co-immunoprecipitation with Bcl-2 family proteins in HEK293T cells; assay type: binding; set-up: expressed in transfected cells; host or cells: HEK293T
T1 sequence (Q16611 1-211): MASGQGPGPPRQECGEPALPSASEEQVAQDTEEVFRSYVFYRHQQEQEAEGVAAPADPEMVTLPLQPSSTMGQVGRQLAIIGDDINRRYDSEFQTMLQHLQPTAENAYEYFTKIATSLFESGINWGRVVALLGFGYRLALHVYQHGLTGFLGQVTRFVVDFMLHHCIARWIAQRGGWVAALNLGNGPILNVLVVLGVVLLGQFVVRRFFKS
Text: (A) HEK293T cells were transfected with pcDNA3-myc plasmids encoding Bax or other Bcl-2 family proteins with GFP, GFP-HN, or GFP-HN(C8P). Cell lysates were immunoprecipitated with polyclonal anti-GFP antibody. The immunoprecipitates or the lysates were blotted with anti-myc or anti-GFP antibodies, respectively. The slower migrating form of GFP seen in lane 1 (asterisk)represents an alternative form of GFP produced from the wild-type (control) p-EGFP-Cl plasmid (http://clonotech.com). (B) Testes of three-week-old mice were homogenized in lysis buffer (0.1% Triton X-100, 50 mM Tris-HCl, pH7.5, 1 mM EDTA, plus protease inhibitor cocktail). The lysates were immunoprecipitated with control rabbit serum or polyclonal anti-mouse Bax antibody. The immunoprecipitates or the lysates were subjected to electrophoresis in Tris/Tricine gels (16% T, 3% C), electroblotted to PVDF membrane, and immunoblotted with polyclonal anti-HN antibody or monoclonal anti-Bax antibody 6A7 (Trevigen). (C) The affinity (Kd) of Bax/HN interaction was measured by fluorescence polarization assay, using various concentrations of purified recombinant Bax and 40 nM rhodamine-conjugated HN peptide. Control peptide from CD40 is also shown (mean +Std Dev; n=3).
Furthermore, multiple Bcl-2 family proteins were surveyed for interactions with Humanin by coimmunoprecipitation experiments (FIG. 5A). […]

[2] = test system: HCT116 parental cells; assay: STS-induced apoptosis in HCT116 parental cells; assay type: cell-based, human
[3] = test system: Bax-deficient HCT116 cells; assay: STS-induced apoptosis in Bax-deficient HCT116 cells; assay type: cell-based, human
[4] = molecular target: purified recombinant Bax (Homo sapiens, UniProt Q07812); assay: Isolated mitochondria: Bax association and cytochrome c release assay; assay type: biochemical; conditions: 100 μM peptide preincubated with Bax, HCT116 mitochondria
Chain of purified recombinant Bax (Q07812 whole entry): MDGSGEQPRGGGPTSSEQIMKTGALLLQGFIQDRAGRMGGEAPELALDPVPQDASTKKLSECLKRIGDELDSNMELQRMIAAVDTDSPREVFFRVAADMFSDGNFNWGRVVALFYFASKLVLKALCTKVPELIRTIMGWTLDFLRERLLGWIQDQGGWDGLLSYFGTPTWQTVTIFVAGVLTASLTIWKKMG
Protocol: (A-B) Humanin peptide prevents STS-induced Bax translocation in vivo. Cos-7 cells were first transfected with GFP-Bax plasmids. After 24 hrs, untagged wild-type or C8P mutant Humanin peptides were introduced into cells using ChariotTM reagent, and 2 h later cells were treated with 1 μM STS. After 4 h, the percentage of cells with translocated Bax was determined (mean±SD; n=3) by confocal microscopy (A) and representative photomicrographs (B). (C) Wild-type or C8P mutant Humanin peptides were introduced into Cos7 cells using ChariotTM reagent. Cytosolic (C) and mitochondria-containing (M) fractions were isolated by differential centrifugation 23 and analyzed by immunoblotting using anti-Bax (top), Hsp60 (middle) (mitochondrial marker), or Tubulin (bottom) (cytosol marker) antibodies. (D) HN or mutant control double-strand siRNAs were transfected into SF268 cells. After 48 h, cells were cultured without (Control) or with 0.1 uM STS. After 24 hr, cells were fractionated and analyzed by immunoblotting as above. (E) Isolated mitochondria were mixed with 400 ng Bax protein, with or without preincubating Bax with 100 uM Humanin or Humanin(C8P) peptides for 10 min. After 3 h at 30° C., mitochondria were centrifuged and the resulting pellets (P) and supernatants (S) were analyzed by immunoblotting using anti-Cytochrome c (top), Hsp60 (middle), and Bax (bottom) antibodies. (F) HN peptide enforces the interaction of Bax TM domain with Bax.TM. Lysates from HEK293T cells expressing Flag-Bax.TM were pretreated with or without Humanin or Humanin(C8P) peptides. Lysates were then mixed in vitro with lysates of HEK293T cells expressing GFP-TM(Bax). Immunoprecipitations were performed with anti-Flag antibody, analyzing lysates and immunoprecipitates (IP) by immunoblotting using monoclonal anti-GFP antibody.
To determine whether Humanin can act directly on Bax, the effects of Humanin on isolated mitochondria were tested. Addition of recombinant purified Bax protein to mitochondria in vitro induces cytochrome c release (Jurgensmeier et al., Proc. Natl. Acad. Sci. USA 95:4997-5002 (1998)). […] Therefore Humanin can directly suppress Bax targeting to mitochondria, without requirement for intact cells.
Cytochrome c release assays were performed as follows. Mitochondria were isolated from HCT116 cells by differential centrifugation as described above. Purified recombinant human Bax protein (400 ng for each sample) was pre-incubated with or without 100 μM synthetic Humanin peptide or mutant Humanin (C8P) peptide for 10 min at 4° C. The untreated or peptide pre-treated Baxprotein samples were then mixed with equal amount of HCT116 mitochondria (in a volume of 40 μl) at 30° C. for 3 hours. […]

| co-immunoprecipitation with Bak [1] | Substance | reduction of percentage of cells undergoing STS-induced apoptosis [2] | suppression of STS-induced apoptosis [3] | Bax association with mitochondria [4] | cytochrome c release [4] |
| --- | --- | --- | --- | --- | --- |
| did not co-immunoprecipitate | GFP-HN: Wild-type full-length Humanin fused to Green Fluorescent Protein | about half | failed to suppress |  |  |
|  | Humanin: 24 amino acid polypeptide, cytosolic form of human Humanin (SEQ ID NO:2); used as synthetic peptide or expressed fusion |  |  | suppressed | reduced |

From patent US7422862B2, “Methods for identifying modulators of apoptosis” (The Burnham Institute, priority 2001, dated 2008)
